Experimental data from patent US20060105414.

T1: GST-IκBα (1-54), regulatory domain of IκBα, P25963
T1 chain: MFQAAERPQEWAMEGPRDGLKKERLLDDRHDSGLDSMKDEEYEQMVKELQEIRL

T2: GST-NF-κB2 (754-900) (p100C), C terminal regulatory domain of NF-κB2, Q00653
T2 chain: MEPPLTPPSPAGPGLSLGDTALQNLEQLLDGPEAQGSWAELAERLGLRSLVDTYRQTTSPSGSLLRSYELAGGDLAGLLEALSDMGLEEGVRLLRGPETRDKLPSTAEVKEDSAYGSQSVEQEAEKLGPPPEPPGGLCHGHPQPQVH

B1: IκB kinase α (IKKα), recombinant, chromatographically pure, produced in Sf9 cells using baculoviruses (protein)
chain: MERPPGLRPGAGGPWEMRERLGTGGFGNVCLYQHRELDLKIAIKSCRLELSTKNRERWCHEIQIMKKLNHANVVKACDVPEELNILIHDVPLLAMEYCSGGDLRKLLNKPENCCGLKESQILSLLSDIGSGIRYLHENKIIHRDLKPENIVLQDVGGKIIHKIIDLGYAKDVDQGSLCTSFVGTLQYLAPELFENKPYTATVDYWSFGTMVFECIAGYRPFLHHLQPFTWHEKIKKKDPKCIFACEEMSGEVRFSSHLPQPNSLCSLIVEPMENWLQLMLNWDPQQRGGPVDLTLKQPRCFVLMDHILNLKIVHILNMTSAKIISFLLPPDESLHSLQSRIERETGINTGSQELLSETGISLDPRKPASQCVLDGVRGCDSYMVYLFDKSKTVYEGPFASRSLSDCVNYIVQDSKIQLPIIQLRKVWAEAVHYVSGLKEDYSRLFQGQRAAMLSLLRYNANLTKMKNTLISASQQLKAKLEFFHKSIQLDLERYSEQMTYGISSEKMLKAWKEMEEKAIHYAEVGVIGYLEDQIMSLHAEIMELQKSPYGRRQGDLMESLEQRAIDLYKQLKHRPSDHSYSDSTEMVKIIVHTVQSQDRVLKELFGHLSKLLGCKQKIIDLLPKVEVALSNIKEADNTVMFMQGKRQKEIWHLLKIACTQSSARSLVGSSLEGAVTPQTSAWLPPTSAEHDHSLSCVVTPQDGETSAQMIEENLNCLGHLSTIIHEANEEQGNSMMNLDWSWLTE
B2: NF-κB inducing kinase (NIK), recombinant, immunopurified, produced in Sf9 cells using baculoviruses (protein)
chain: MAVMEMACPGAPGSAVGQQKELPKAKEKTPPLGKKQSSVYKLEAVEKSPVFCGKWEILNDVITKGTAKEGSEAGPAAISIIAQAECENSQEFSPTFSERIFIAGSKQYSQSESLDQIPNNVAHATEGKMARVCWKGKRRSKARKKRKKKSSKSLAHAGVALAKPLPRTPEQESCTIPVQEDESPLGAPYVRNTPQFTKPLKEPGLGQLCFKQLGEGLRPALPRSELHKLISPLQCLNHVWKLHHPQDGGPLPLPTHPFPYSRLPHPFPFHPLQPWKPHPLESFLGKLACVDSQKPLPDPHLSKLACVDSPKPLPGPHLEPSCLSRGAHEKFSVEEYLVHALQGSVSSGQAHSLTSLAKTWAARGSRSREPSPKTEDNEGVLLTEKLKPVDYEYREEVHWATHQLRLGRGSFGEVHRMEDKQTGFQCAVKKVRLEVFRAEELMACAGLTSPRIVPLYGAVREGPWVNIFMELLEGGSLGQLVKEQGCLPEDRALYYLGQALEGLEYLHSRRILHGDVKADNVLLSSDGSHAALCDFGHAVCLQPDGLGKSLLTGDYIPGTETHMAPEVVLGRSCDAKVDVWSSCCMMLHMLNGCHPWTQFFRGPLCLKIASEPPPVREIPPSCAPLTAQAIQEGLRKEPIHRVSAAELGGKVNRALQQVGGLKSPWRGEYKEPRHPPPNQANYHQTLHAQPRELSPRAPGPRPAEETTGRAPKLQPPLPPEPPEPNKSPPLTLSKEESGMWEPLPLSSLEPAPARNPSSPERKATVPEQELQQLEIELFLNSLSQPFSLEEQEQILSCLSIDSLSLSDDSEKNPSKASQSSRDTLSSGVHSWSSQAEARSSSWNMVLARGRPTDTPSYFNGVKVQIQSLNGEHLHIREFHRVKVGDIATGISSQIPAAAFSLVTKDGQPVRYDMEVPDSGIDLQCTLAPDGSFAWSWRVKHGQLENRP
B3: IKKβ, recombinant, chromatographically pure, produced in Sf9 cells using baculoviruses (protein)
chain: MSWSPSLTTQTCGAWEMKERLGTGGFGNVIRWHNQETGEQIAIKQCRQELSPRNRERWCLEIQIMRRLTHPNVVAARDVPEGMQNLAPNDLPLLAMEYCQGGDLRKYLNQFENCCGLREGAILTLLSDIASALRYLHENRIIHRDLKPENIVLQQGEQRLIHKIIDLGYAKELDQGSLCTSFVGTLQYLAPELLEQQKYTVTVDYWSFGTLAFECITGFRPFLPNWQPVQWHSKVRQKSEVDIVVSEDLNGTVKFSSSLPYPNNLNSVLAERLEKWLQLMLMWHPRQRGTDPTYGPNGCFKALDDILNLKLVHILNMVTGTIHTYPVTEDESLQSLKARIQQDTGIPEEDQELLQEAGLALIPDKPATQCISDGKLNEGHTLDMDLVFLFDNSKITYETQISPRPQPESVSCILQEPKRNLAFFQLRKVWGQVWHSIQTLKEDCNRLQQGQRAAMMNLLRNNSCLSKMKNSMASMSQQLKAKLDFFKTSIQIDLEKYSEQTEFGITSDKLLLAWREMEQAVELCGRENEVKLLVERMMALQTDIVDLQRSPMGRKQGGTLDDLEEQARELYRRLREKPRDQRTEGDSQEMVRLLLQAIQSFEKKVRVIYTQLSKTVVCKQKALELLPKVEEVVSLMNEDEKTVVRLQEKRQKELWNLLKIACSKVRGPVSGSPDSMNASRLSQPGQLMSQPSTASNSLPEPAKKSEELVAEAHNLCTLLENAIQDTVREQDQSFTALDWSWLQTEEEEHSCLEQAS

Assays:
[1] = biological target: T1, GST-IκBα (1-54), regulatory domain of …
[2] = biological target: T2, GST-NF-κB2 (754-900) (p100C), C …

| Protein | phosphorylation of GST-IκBα (1-54) in an in vitro kinase assay [1] | phosphorylation of GST-NF-κB2 (754-900) (p100C) in an in vitro kinase assay [2] | phosphorylation of the NF-κB2 C-terminal regulatory domain in vitro [2] |
| --- | --- | --- | --- |
| B1 | the regulatory domain of Iκ Bα was phosphorylated more efficiently by IKKβ than by IKKα | the C terminal regulatory domain of NF-κB2 was phosphorylated most efficiently by IKKα | IKK is a more effective NF-B2 C-terminal kinase than NIK |
| B2 | not at all by NIK |  | both NIK and IKKα phosphorylate the C-terminal regulatory domain of NF-κB2 |
| B3 | the regulatory domain of Iκ Bα was phosphorylated more efficiently by IKKβ than by IKKα |  |  |
